Usually Ki stands for the equilibrium dissociation constant of an inhibitor or competing ligand from its target. High values mean a looser hold on the target, low ones a stronger hold on the target.

The source of these data is publication PMC7992120 (2018).

This experiment concerns the target linearized DAKD (N-methyl F6) (Homo sapiens, backbone amide N-methylation at F6 of peptide). Briefly: radioligand competition binding. On the technique in general: Loss of bound radioactivity is the signal in a displacement assay; it reports binding, not function.

B1: B1 bradykinin receptor (B1R) (protein)
chain: MASSWPPLELQSSNQSQLFPQNATACDNAPEAWDLLHRVLPTFIISICFFGLLGNLFVLLVFLLPRRQLNVAEIYLANLAASDLVFVLGLPFWAENIWNQFNWPFGALLCRVINGVIKANLFISIFLVVAISQDRYRVLVHPMASRRQQRRRQARVTCVLIWVVGGLLSIPTFLLRSIQAVPDLNITACILLLPHEAWHFARIVELNILGFLLPLAAIVFFNYHILASLRTREEVSRTRCGGRKDSKTTALILTLVVAFLVCWAPYHFFAFLEFLFQVQAVRGCFWEDFIDLGLQLANFFAFTNSSLNPVIYVFVGRLFRTKVWELYKQCTPKSLAPISSSHRKEIFQLFWRN
B1 came in with an inhibitory constant (Ki) of 2030 nM.
